The series concerns the molecule itself. Description: anti-Myc immunoprecipitation from co-transfected NIH3T3 lysates, non-reducing Western blot; 58-kD disulfide-bonded homodimer. An excerpt:
This example describes the analysis of the protein structure of Penumbra protein. NIH3T3 fibroblasts were co-transfected with pcDNA3.1/Pen-Myc and pEGFP NI/Pen. The latter expressed murine Penumbra (SEQ ID NO:3) as a fusion protein with enhanced green fluorescent protein (EGFP) in its C-terminus. The Pen-Myc fusion protein was first immunoprecipitated from cell lysates using the anti-Myc MAb, Western blotted and sequentially probed with anti-Myc and anti-EGFP antibodies. It appeared that both Pen-Myc/Pen-Myc and Pen-Myc/Pen-EGFP dimers were apparent in the immunoprecipitates under non-reducing conditions and they appeared to dissociate into monomers after reduction indicating they appear to form disulfide-bonded homodimers. It appeared that under reducing conditions, all Pen-Myc fusion proteins existed as 29-kD monomers. In contrast, under non-reducing conditions, it appeared that about half of Pen-Myc protein existed as 58-kD homodimers, while the remaining Pen-Myc protein appeared to exist either as 29-kDa monomers or 89-kDa dimers with Pen-EGFP. […] The same blot was then stripped and reprobed with anti-EGFP antibodies to reveal an apparent ˜60-kD Pen-EGFP monomer and the 89-kD Pen-Myc/Pen-EGFP dimer.

B1: Penumbra-Myc fusion protein (murine Penumbra with C-terminal 11-aa Myc and 6-aa His tags, expressed from pcDNA3.1/Pen-Myc) (other)
chain: MARRPGVPAAYGDEFSFVSPLVKYLLFFFNMLFWVISMVMVAVGVYARLMKHAEAALACLAVDPAILLIVVGVLMFLLTFCGCIGSLRENICLLQTFSLCLTIVFLLQLAAGILGFVFSDKARGKVSEIINNAIVHYRDDLDLQNLIDFGQKKFSCCGGISYRDWSQNMYFNCSEDNPSRERCSVPYSCCLPTPRQAVINTMCGQGMQANDYLEASKVIYTNGCIDKLVNWIHSNLFLLGGVALGLAIPQLVGILLSQVLVNQIKDQIKLQLYNQQHRADPWY
notes: Seen as a 29-kD monomer on reducing gels; also called Pen-Myc fusion protein; Pen-Myc protein; not shown: 11-aa Myc tag from the pcDNA3.1 vector; 6-aa His tag from the pcDNA3.1 vector
Consider B1, for which the binding result is “binds”.
